The values below are quoted from earlier work in patent US7776891B2, “VLA-4 antagonists” (Merck Sharp & Dohme Corp., priority 2004, dated 2010).

In the data set the target is T1, VLA-4 (Homo sapiens, UniProt P13612).
T1 construct: host or cells: circulating VLA-4-bearing leukocytes of trial subjects (endogenous)
Particulars: early clinical trials.

Where only a bound is given, the exact number is not on record here.

Turning to “natalizumab: humanized monoclonal antibody against α4 (Antegren®, Elan/Biogen)”, the “lymphocytosis (a surrogate marker for blockade of VLA-4 function)” value is “observed” and the receptor occupancy was more than 80%.
